# Key:
# [1] = target: MAGE-A1278-286 peptide presented on HLA-A2 on cells (peptide-loaded T2 cells; 721.211-A2 MAGE-A1+ cells) (human); test: cell-based or functional assay
# [2] = target: T1, MAGE-A1 278-286 with alanine at position 7 peptide on HLA-A*02:01 (human); test: cytokine release
# T1 peptide: KVLEYVAKV
# [3] = target: T2, MAGE-A1 278-286 with alanine at position 4 peptide on HLA-A*02:01 (human); test: cytokine release
# T2 peptide: KVLAYVIKV
# [4] = target: T3, MAGE-A1 278-286 with alanine at position 9 peptide on HLA-A*02:01 (human); test: cytokine release
# T3 peptide: KVLEYVIKA
# [5] = target: T4, MUC1 peptide on HLA-A*02:01 (human); test: cytokine release
# T4 peptide: LLLTVLTVV
# [6] = target: T5, MAGE-A1 278-286 with alanine at position 3 peptide on HLA-A*02:01 (human); test: cytokine release
# T5 peptide: KVAEYVIKV
# [7] = target: T6, MAGE-A1 278-286 with alanine at position 8 peptide on HLA-A*02:01 (human); test: cytokine release
# T6 peptide: KVLEYVIAV
# [8] = target: T7, MAGE-A1 278-286 with alanine at position 2 peptide on HLA-A*02:01 (human); test: cytokine release
# T7 peptide: KALEYVIKV
# [9] = target: T8, MAGE-A1 278-286 with alanine at position 1 peptide on HLA-A*02:01 (human); test: cytokine release
# T8 peptide: AVLEYVIKV
# [10] = target: T9, MAGE-A1 278-286 with alanine at position 5 peptide on HLA-A*02:01 (human); test: cytokine release
# T9 peptide: KVLEAVIKV
# [11] = target: T10, MAGE-A1 278-286 with alanine at position 6 peptide on HLA-A*02:01 (human); test: cytokine release
# T10 peptide: KVLEYAIKV
# [12] = target: T11, MAGE-A1 peptide on HLA-A*02:01 (human); test: intracellular IFNγ; transduced human PBMCs (donor I); peptide titration on T2 cells; unit not printed for m2 (the others in pM); minimal activity not reached; full-length, on cells; conditions: chains Valpha:Vbeta
# T11 chain: KVLEYVIKV
# [13] = target: T11, MAGE-A1 peptide on HLA-A*02:01 (human); test: intracellular IFNγ and IL2, 6 h; transduced human PBMCs; peptide-loaded T2 cells and 721.211-A2 cells that express the antigen; full-length, on cells; conditions: chains Valpha:Vbeta
# [14] = target: T4, MUC1 peptide on HLA-A*02:01; test: killing
# [15] = target: T12, MAGE-A1 peptide on HLA-A*02:01 (human); test: multimer staining
# T12 peptide: KVLEYVIKV
Binder,% IFNγ+ cells after co-culture with 721.211-A2 cells [1] [% IFNγ+],"EC50 of IFNγ production (peptide concentration), T2 cells loaded with MAGE-A1 peptide [1] [pM]",EC50 of IFNγ production against WT hT27 [1],EC50 of IL2 production against WT hT27 [1],binding result [4],binding result [7],binding result [9],binding result [11],binding result [15],other results
"hT27 TCR comprising W55L+Y56F mutations in the alpha chain (m9) (TCR, V domains shown) V domain 1: EDVEQSLFLSVREGDSSVINCTYTDSSSTYLYLFKQEPGAGLQLLTYIFSNMDMKQDQRLTVLLNKKDKHLSLRIADTQTGDSAIYFCAGSGGGTDKLIFGTGTRLQVFP V domain 2: AVVSQHPSWVICKSGTSVKIECRSLDFQATTMFWYRQFPKQSLMLMATSNEGSKATYEQGVEKDKFLINHASLTLSTLTVTSAHPEDSSFYICSAREPGQGPYEQYFGPGTRLTVTE",5.4,0.275,~4 orders of magnitude lower than WT hT27 TCR,~3 orders of magnitude lower than WT hT27 TCR,–,–,–,–,–,–
"wild type (WT) hT27 TCR, MAGE-A1 specific (TCR) TCR alpha: RGEDVEQSLFLSVREGDSSVINCTYTDSSSTYLYWYKQEPGAGLQLLTYIFSNMDMKQDQRLTVLLNKKDKHLSLRIADTQTGDSAIYFCAGSGGGTDKLIFGTGTRLQVFPNIQNPEPAVYQLKDPRSQDSTLCLFTDFDSQINVPKTMESGTFITDKTVLDMKAMDSKSNGAIAWSNQTSFTCQDIFKETNATYPSSDVPCDATLTEKSFETDMNLNFQNLSVMGLRILLLKVAGFNLLMTLRLWSS TCR beta: AVVSQHPSWVICKSGTSVKIECRSLDFQATTMFWYRQFPKQSLMLMATSNEGSKATYEQGVEKDKFLINHASLTLSTLTVTSAHPEDSSFYICSAREPGQGPYEQYFGPGTRLTVTEDLRNVTPPKVSLFEPSKAEIANKQKATLVCLARGFFPDHVELSWWVNGKEVHSGVSTDPQAYKESNYSYCLSSRLRVSATFWHNPRNHFRCQVQFHGLSEEDKWPEGSPKPVTQNISAEAWGRADCGITSASYHQGVLSATILYEILLGKATLYAVLVSGLVLMAMVKKKNS",3.3,3540,–,–,–,–,–,–,–,–
hT27 TCR comprising G125V mutation in the alpha chain (m8) (TCR) TCR alpha: RGEDVEQSLFLSVREGDSSVINCTYTDSSSTYLYWYKQEPGAGLQLLTYIFSNMDMKQDQRLTVLLNKKDKHLSLRIADTQTGDSAIYFCAGSGGGTDKLIFGTVTRLQVFPNIQNPEPAVYQLKDPRSQDSTLCLFTDFDSQINVPKTMESGTFITDKTVLDMKAMDSKSNGAIAWSNQTSFTCQDIFKETNATYPSSDVPCDATLTEKSFETDMNLNFQNLSVMGLRILLLKVAGFNLLMTLRLWSS TCR beta: AVVSQHPSWVICKSGTSVKIECRSLDFQATTMFWYRQFPKQSLMLMATSNEGSKATYEQGVEKDKFLINHASLTLSTLTVTSAHPEDSSFYICSAREPGQGPYEQYFGPGTRLTVTEDLRNVTPPKVSLFEPSKAEIANKQKATLVCLARGFFPDHVELSWWVNGKEVHSGVSTDPQAYKESNYSYCLSSRLRVSATFWHNPRNHFRCQVQFHGLSEEDKWPEGSPKPVTQNISAEAWGRADCGITSASYHQGVLSATILYEILLGKATLYAVLVSGLVLMAMVKKKNS,3.8,0.982,~4 orders of magnitude lower than WT hT27 TCR,~3 orders of magnitude lower than WT hT27 TCR,–,–,–,–,–,–
"hT27 TCR comprising S109N mutation in the beta chain (m2) (TCR, V domains shown) V domain 1: RGEDVEQSLFLSVREGDSSVINCTYTDSSSTYLYWYKQEPGAGLQLLTYIFSNMDMKQDQRLTVLLNKKDKHLSLRIADTQTGDSAIYFCAGSGGGTDKLIFGTGTRLQVFP V domain 2: AVVSQHPSWVICKSGTSVKIECRSLDFQATTMFWYRQFPKQSLMLMATSNEGSKATYEQGVEKDKFLINHASLTLSTLTVTSAHPEDSSFYICNAREPGQGPYEQYFGPGTRLTVTE",49.7,–,~4 orders of magnitude lower than WT hT27 TCR,~3 orders of magnitude lower than WT hT27 TCR,–,–,–,–,–,–
"hT27 TCR comprising T63I mutation in the beta chain (m3) (TCR, V domains shown) V domain 1: RGEDVEQSLFLSVREGDSSVINCTYTDSSSTYLYWYKQEPGAGLQLLTYIFSNMDMKQDQRLTVLLNKKDKHLSLRIADTQTGDSAIYFCAGSGGGTDKLIFGTGTRLQVFP V domain 2: AVVSQHPSWVICKSGTSVKIECRSLDFQATTMFWYRQFPKQSLMLMAISNEGSKATYEQGVEKDKFLINHASLTLSTLTVTSAHPEDSSFYICSAREPGQGPYEQYFGPGTRLTVTE",6.9,0.352,~4 orders of magnitude lower than WT hT27 TCR,~3 orders of magnitude lower than WT hT27 TCR,–,–,–,–,–,–
"hT27 TCR m2 (beta chain S109N) (TCR, V domains shown) Valpha: GEDVEQSLFLSVREGDSSVINCTYTDSSSTYLYWYKQEPGAGLQLLTYIFSNMDMKQDQRLTVLLNKKDKHLSLRIADTQTGDSAIYFCAGSGGGTDKLIFGTGTRLQVFP Vbeta: GAVVSQHPSWVICKSGTSVKIECRSLDFQATTMFWYRQFPKQSLMLMATSNEGSKATYEQGVEKDKFLINHASLTLSTLTVTSAHPEDSSFYICNAREPGQGPYEQYFGPGTRLTVT",–,–,–,–,recognises,recognises,recognises,recognises,–,binding result [2]: recognises; binding result [3]: recognises; binding result [5]: recognises; binding result [6]: recognises; binding result [8]: recognises; binding result [10]: recognises; EC50 of peptide [12]: 0.289; percent IFNγ+ cells towards 721.211-A2 cells [13]: 49.7%
"hT27 TCR (TCR, V domains shown) Valpha: GEDVEQSLFLSVREGDSSVINCTYTDSSSTYLYWYKQEPGAGLQLLTYIFSNMDMKQDQRLTVLLNKKDKHLSLRIADTQTGDSAIYFCAGSGGGTDKLIFGTGTRLQVFP Vbeta: GAVVSQHPSWVICKSGTSVKIECRSLDFQATTMFWYRQFPKQSLMLMATSNEGSKATYEQGVEKDKFLINHASLTLSTLTVTSAHPEDSSFYICSAREPGQGPYEQYFGPGTRLTVT",–,–,–,–,recognises,no recognition,recognises,no recognition,–,binding result [14]: no recognition; binding result [3]: no recognition; binding result [6]: no recognition; binding result [10]: no recognition
"hT27 TCR m3 (beta chain T63I) (TCR, V domains shown) Valpha: GEDVEQSLFLSVREGDSSVINCTYTDSSSTYLYWYKQEPGAGLQLLTYIFSNMDMKQDQRLTVLLNKKDKHLSLRIADTQTGDSAIYFCAGSGGGTDKLIFGTGTRLQVFP Vbeta: GAVVSQHPSWVICKSGTSVKIECRSLDFQATTMFWYRQFPKQSLMLMAISNEGSKATYEQGVEKDKFLINHASLTLSTLTVTSAHPEDSSFYICSAREPGQGPYEQYFGPGTRLTVT",–,–,–,–,recognises,recognises,recognises,recognises,recognises,binding result [14]: no recognition; binding result [2]: recognises; binding result [8]: recognises
"hT27 TCR m8 (alpha chain G125V) (TCR, V domains shown) Valpha: GEDVEQSLFLSVREGDSSVINCTYTDSSSTYLYWYKQEPGAGLQLLTYIFSNMDMKQDQRLTVLLNKKDKHLSLRIADTQTGDSAIYFCAGSGGGTDKLIFGTVTRLQVFP Vbeta: GAVVSQHPSWVICKSGTSVKIECRSLDFQATTMFWYRQFPKQSLMLMATSNEGSKATYEQGVEKDKFLINHASLTLSTLTVTSAHPEDSSFYICSAREPGQGPYEQYFGPGTRLTVT",–,–,–,–,recognises,recognises,recognises,recognises,recognises,binding result [14]: no recognition; binding result [2]: recognises; binding result [8]: recognises
"hT27 TCR with beta chain S32T and S109N mutations (TCR, V domains shown) Valpha: GEDVEQSLFLSVREGDSSVINCTYTDSSSTYLYWYKQEPGAGLQLLTYIFSNMDMKQDQRLTVLLNKKDKHLSLRIADTQTGDSAIYFCAGSGGGTDKLIFGTGTRLQVFP Vbeta: GAVVSQHPSWVICKSGTTVKIECRSLDFQATTMFWYRQFPKQSLMLMATSNEGSKATYEQGVEKDKFLINHASLTLSTLTVTSAHPEDSSFYICNAREPGQGPYEQYFGPGTRLTVT",–,–,–,–,–,–,–,–,recognises,–
"hT27 TCR m7 (alpha chain G125A) (TCR, V domains shown) Valpha: GEDVEQSLFLSVREGDSSVINCTYTDSSSTYLYWYKQEPGAGLQLLTYIFSNMDMKQDQRLTVLLNKKDKHLSLRIADTQTGDSAIYFCAGSGGGTDKLIFGTATRLQVFP Vbeta: GAVVSQHPSWVICKSGTSVKIECRSLDFQATTMFWYRQFPKQSLMLMATSNEGSKATYEQGVEKDKFLINHASLTLSTLTVTSAHPEDSSFYICSAREPGQGPYEQYFGPGTRLTVT",–,–,–,–,–,–,–,–,recognises,–

# Reference: patent US20230242611A1 (YEDA RESEARCH AND DEVELOPMENT, published 2023)
